Patent US20220267436A1

How the values were obtained:
human CD47 (human) [1] = biological target: human CD47 (human) (UniProt Q08722); assay: flow cytometry, CHO-K1 cells expressing human CD47; FIG. 4
human CD47 (human) [2] = biological target: human CD47 (human) (UniProt Q08722); assay: flow cytometry, CHO-K1 cells expressing human CD47; FIG. 3
human LAG-3 (human) [3] = biological target: human LAG-3 (human) (UniProt P18627); assay: flow cytometry, CHO-K1 cells expressing human LAG-3; FIG. 2
human LAG-3 (human) [4] = biological target: human LAG-3 (human) (UniProt P18627); assay: flow cytometry, CHO-K1 cells expressing human LAG-3; FIG. 1

human LAG-3 (human), sequence (P18627 23-525): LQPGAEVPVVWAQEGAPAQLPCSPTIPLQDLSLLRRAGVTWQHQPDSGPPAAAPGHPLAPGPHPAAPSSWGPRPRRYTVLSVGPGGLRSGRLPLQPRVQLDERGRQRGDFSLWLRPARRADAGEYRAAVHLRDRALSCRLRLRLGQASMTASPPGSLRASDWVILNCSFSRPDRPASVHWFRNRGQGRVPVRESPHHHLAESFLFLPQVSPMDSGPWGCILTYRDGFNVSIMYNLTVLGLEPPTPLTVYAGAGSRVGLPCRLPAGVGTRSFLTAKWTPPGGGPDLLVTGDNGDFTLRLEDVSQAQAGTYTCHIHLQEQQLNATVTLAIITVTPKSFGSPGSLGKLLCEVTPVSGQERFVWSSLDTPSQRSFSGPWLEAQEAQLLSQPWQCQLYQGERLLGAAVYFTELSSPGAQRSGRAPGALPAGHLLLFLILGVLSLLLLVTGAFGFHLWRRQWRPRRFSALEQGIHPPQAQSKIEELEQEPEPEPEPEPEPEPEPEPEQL
human CD47 (human), sequence (Q08722 19-323): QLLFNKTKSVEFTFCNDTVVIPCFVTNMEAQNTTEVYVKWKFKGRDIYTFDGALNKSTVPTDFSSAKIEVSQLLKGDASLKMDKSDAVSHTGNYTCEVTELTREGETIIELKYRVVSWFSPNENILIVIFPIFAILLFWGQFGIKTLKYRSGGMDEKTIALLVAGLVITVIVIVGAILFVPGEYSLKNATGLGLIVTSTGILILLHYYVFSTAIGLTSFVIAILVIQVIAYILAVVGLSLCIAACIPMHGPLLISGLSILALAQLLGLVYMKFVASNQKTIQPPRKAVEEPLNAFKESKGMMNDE

Which results are given for Human IgG?
EC50 (human CD47 (human) [1]): 14.4 nM; EC50 (human CD47 (human) [2]): 14.4 nM; EC50 (human LAG-3 (human) [3]): 2.46 nM; EC50 (human LAG-3 (human) [4]): 2.46 nM
